Data on 1 molecule can be found in patent US20210261643A1, “INHIBITORS OF P-TEFB MEDIATED TRANSCRIPTION” (The Regents of the University of California, priority 2018, published 2021).

In series [1] the test system is host cell gene expression in 293T cells. Kind of series: mRNA-seq analysis in 293T cells. The format is cell-based. An excerpt: The specificity of HT1 was further investigated by mRNA-seq analysis in 293T cells. Only 48 genes were differentially expressed upon ectopic expression of HT1, while knocking out CycT1 as a control impacted 1673 genes.
The test system of series [2] is Tat-dependent gene expression from the HIV promoter. The series can be described thus: Luciferase reporter assay, pLTR-Luc co-transfected with pTat and pHT in 293T cells. The note with it: 293T cells, pHT:pTat ratio 2:1. It counts as cell-based. An excerpt:
FIGS. 2A, 2B, and 2C. A HEXIM1-Tat fusion peptide inhibits gene expression from the HIV promoter. FIG. 2A. Structure of the HEXIM1-Tat fusion peptides used in the study. The functional domains used from HEXIM1 and Tat include a HEXIM1 Arginine Rich Motif (ARM, black box, residues 150-162) that binds RNA, a HEXIM1 inhibitory domain (ID, light grey box, residues 200-211) that inhibits CDK9 through a PYNT motif, and Tat transactivation domain (AD, dark grey box, residues 1-48) that binds to P-TEFb. The conceptual schemes are not drawn to scale. FIG. 2B. Transient expression of HT1 inhibits Tat-induced LTR-driven Luc expression. Upper panel: a schema depicts the reporter assay. A luciferase reporter gene (Luc) is under the control of the HIV promoter (P-HIV) and can be activated by ectopically expressed Tat. The Luc assay was used to titrate the inhibitory effect of HT1-3 on P-HIV transactivation by Tat. Middle panel: increasing amounts of m:HT1, m:HT2 or m:HT3 expressing plasmid (pHT) were co-transfected in 293T cells with a plasmid (pTat) expressing f:Tat and another (pLTR-Luc) expressing Luc under the control of the HIV promoter. Luc activity was plotted as % activity relative to control (empty vector used instead of pHT), depending on the transfected pHT:pTat ratio. Error bars in the graph represent standard deviation from triplicate experiments. FIG. 2C. Transient expression of HT1 inhibits Luc expression from HIV-1 NL43ΔenvLuc. Top schema depicts the reporter assay. A luciferase reporter gene (Luc) is inserted in a replication-defective HIV-1 molecular clone (pNL43ΔenvLuc) in which Luc and Tat are under the control of the HIV promoter (P-HIV). A Luc assay was used to titrate the inhibitory effect of HT1-3 on P-HIV transactivation by Tat. Bottom: increasing amounts of pHT1 were co-transfected in 293T cells with pNL43ΔenvLuc. Luc activity was plotted as % activity relative to control (empty vector used instead of pHT), depending on the transfected amounts of pHT1. Error bars in the graph represent standard deviation from triplicate experiments.
Luciferase (Luc) reporter assays were performed to titrate the potency of each chimera to inhibit Tat-dependent gene expression from the HIV promoter. Effector plasmids included pHT1-3 and pTat, which respectively expressed a Myc-epitope tag chimera (m:HT1-3) and a Flag-epitope tagged Tat (f:Tat). pHT1, pHT2 or pHT3 was transiently co-transfected in 293T cells with pTat and a Luc reporter gene under the control of the HIV promoter (P-HIV, expressed from the plasmid pLTR-Luc). […] Finally, HT1 lead to a 4-fold decrease in Luc expression at a 2:1 ratio. […] Similar results were obtained when co-transfecting pHT1-3 and pTat in NIH1 cells, which stably carry an LTR-Luc reporter gene. Thus, we selected HT1 for further investigation.
For orientation: A reporter such as luciferase makes a cellular process visible.

The subject of series [3] is HIV reactivation in J-Lat 9.2 cells. Kind of series: HIV reactivation in J-Lat 9.2 latent infection model, FACS of GFP positive cells. The format is cell-based. The note with it: PMA 100 nM. The text has this: (§1) FIGS. 4A and 4B. Stable expression of HT1 inhibits HIV reactivation. FIG. 4A: Stable expression of HT1 inhibits HIV reactivation from 2D10 cells. 3f:HT1 was stably expressed in 2D10 cells (D-HT cells). […] Error bars represent standard deviation from triplicate FACS analysis. FIG. 4B: Stable expression of HT1 inhibits HIV reactivation from J-Lat 9.2 cells. 3f:HT1 was stably expressed in J-Lat 9.2 cells (L-HT cells). […] Error bars represent standard deviation from triplicate FACS analysis.
To test the effect of HT1 on HIV-1 in T-lymphocyte derived cells, 3f:HT1 was stably expressed in HIV latent infection models 2D10 and J-Lat 9.2 cells (D-HT and L-HT cells respectively), which carry replication-defective, GFP-flagged HIV proviruses. In both 2D10 and J-Lat 9.2, the basal HIV transcription level is undetectable, as measured through GFP expression. Compounds such as the PKC agonist PMA, the histone deacetylase inhibitor SAHA or the BET bromodomain inhibitor JQ1 reactivate HIV transcription and increase GFP-positive cells detected by FACS analysis. 2D10 cells are more sensitive to HIV reactivation than J-Lat 9.2 cells, though they harbor a mutation in the N-terminal sequence of Tat (H13L). 2D10 and D-HT cells were incubated for 24 hrs with PMA (10 nM), SAHA (5 μM) or JQ1 (1 μM) and GFP positive cells were detected by FACS analysis. […]

For another series, the target named is T1, P-TEFb (CycT1) (Homo sapiens, UniProt O60563).
T1 construct: endogenous in cells; host or cells: 293T
Kind of series: Co-immunoprecipitation of CycT1 from 293T cell lysates. It counts as binding. An excerpt: We next investigated the mechanisms by which HT1 can prevent HIV gene expression.

In series [4] the test system is HIV reactivation in 2D10 cells. Kind of series: HIV reactivation in 2D10 latent infection model, FACS of GFP positive cells. The format is cell-based. As to conditions: D-HT cells, 24 hrs.
Text: as §1
To test the effect of HT1 on HIV-1 in T-lymphocyte derived cells, 3f:HT1 was stably expressed in HIV latent infection models 2D10 and J-Lat 9.2 cells (D-HT and L-HT cells respectively), which carry replication-defective, GFP-flagged HIV proviruses. In both 2D10 and J-Lat 9.2, the basal HIV transcription level is undetectable, as measured through GFP expression. Compounds such as the PKC agonist PMA, the histone deacetylase inhibitor SAHA or the BET bromodomain inhibitor JQ1 reactivate HIV transcription and increase GFP-positive cells detected by FACS analysis. 2D10 cells are more sensitive to HIV reactivation than J-Lat 9.2 cells, though they harbor a mutation in the N-terminal sequence of Tat (H13L). 2D10 and D-HT cells were incubated for 24 hrs with PMA (10 nM), SAHA (5 μM) or JQ1 (1 μM) and GFP positive cells were detected by FACS analysis. PMA, SAHA and JQ1 reactivated HIV from 65%, 71% and 58% less D-HT cells than from control 2D10 cells, respectively. Due to the limited HIV reactivation by SAHA and JQ1 in J-Lat 9.2 cells, we only treated them with PMA (100 nM), which induced a 12% increase in GFP expression.

The next series has as its system 7SK snRNA. The series can be described thus: Binding to endogenous 7SK snRNA. The text has this: Finally, since HEXIM1 ARM resembles the TAR-binding domain from Tat, we investigated whether HT1 could bind to HIV TAR. m:HT1 or m:Tat was co-expressed in 293T cells with TAR RNA, expressed under RNA Polymerase III dependent H1 promoter, and immunoprecipitated using anti-Myc Ab or IgG as a control. TAR RNAs co-immunoprecipitated with HT1 or Tat were quantified by RT-qPCR analysis. […] To test whether HT1 affects Tat-TAR interactions, increasing amounts of m:HT1 were also co-expressed with a fixed amount of f:Tat and TAR. […] As expected, HT1 also bound to endogenous 7SK snRNA.

T1 sequence (O60563 whole entry): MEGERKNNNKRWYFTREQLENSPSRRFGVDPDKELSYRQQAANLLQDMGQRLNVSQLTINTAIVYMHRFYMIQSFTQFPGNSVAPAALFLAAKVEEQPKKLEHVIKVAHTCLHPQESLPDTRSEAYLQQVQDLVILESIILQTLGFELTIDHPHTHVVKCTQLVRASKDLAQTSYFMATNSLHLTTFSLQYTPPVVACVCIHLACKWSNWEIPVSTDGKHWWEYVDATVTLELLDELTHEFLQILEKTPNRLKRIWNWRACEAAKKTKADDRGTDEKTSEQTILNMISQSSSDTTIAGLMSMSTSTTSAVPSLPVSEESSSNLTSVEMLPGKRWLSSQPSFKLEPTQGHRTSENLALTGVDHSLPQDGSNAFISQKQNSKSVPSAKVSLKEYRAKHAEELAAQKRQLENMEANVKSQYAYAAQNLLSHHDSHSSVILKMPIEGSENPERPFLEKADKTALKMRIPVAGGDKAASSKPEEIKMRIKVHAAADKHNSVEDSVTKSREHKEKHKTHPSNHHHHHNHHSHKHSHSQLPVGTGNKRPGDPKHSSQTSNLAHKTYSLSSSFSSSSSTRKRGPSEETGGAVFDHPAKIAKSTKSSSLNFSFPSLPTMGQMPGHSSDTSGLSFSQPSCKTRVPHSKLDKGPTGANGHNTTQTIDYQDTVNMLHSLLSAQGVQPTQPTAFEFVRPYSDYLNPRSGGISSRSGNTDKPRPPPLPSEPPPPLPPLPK
T1 sequence (P50750 whole entry partner): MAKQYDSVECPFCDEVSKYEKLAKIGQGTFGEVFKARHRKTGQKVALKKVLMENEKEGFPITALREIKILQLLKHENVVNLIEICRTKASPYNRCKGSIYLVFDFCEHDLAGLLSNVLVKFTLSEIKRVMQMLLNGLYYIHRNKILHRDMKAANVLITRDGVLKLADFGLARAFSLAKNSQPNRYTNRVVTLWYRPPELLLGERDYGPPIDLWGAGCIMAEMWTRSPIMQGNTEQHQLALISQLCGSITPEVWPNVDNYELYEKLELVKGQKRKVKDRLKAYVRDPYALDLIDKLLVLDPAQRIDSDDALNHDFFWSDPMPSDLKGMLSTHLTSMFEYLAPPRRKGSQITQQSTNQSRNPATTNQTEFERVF

B1: HT1 (protein)
chain: KKKHRRRPSKKKRHWKPYYKLTWEEKKKFDEKQSLRASRIRAEMFAKGQPVAPYNTTQFLMDDHDQEEPDLVDMEPVDPYLEPWKHPGSQPRTACNNCYCKKCCFHCYACFTRKGLGISYG
modifications: left off: small tags and cut ends
On to B1, for which the “genes differentially expressed upon ectopic expression” value in series [1] came out at 48 genes. Besides, the “7SK RNA fold-change” value in series [1] (padj=9.6E−06) is recorded as 1.1. In series [2], the “decrease in Luc expression from the HIV promoter” value is 4 fold. Further, the “decrease of GFP expression in L-HT compared to J-Lat 9.2” value in series [3] was 94%. For the same molecule, the “amounts of CycT1 co-immunoprecipitating with f:Tat” value with P-TEFb (CycT1) (fixed amount of f:Tat, increasing amounts of m:HT1) was “decreased”. For the same molecule, the “binding to CycT1 by co-immunoprecipitation” value in the series with P-TEFb (CycT1) (transient expression in 293T cells, anti-Myc or anti-Flag Abs) is “bound to CycT1”. The “fewer cells with reactivated HIV (GFP positive) than control 2D10 cells” value in series [4] (JQ1 1 μM) is recorded as 58%; in series [4] (PMA 10 nM), 65%; in series [4] (SAHA 5 μM) it was 71%. The “binding to endogenous 7SK snRNA” value with 7SK snRNA was “bound”.
